Measured values: US20230348630A1

What was measured:
[1] = target: CD3D&E protein (Cat #: CT038-H2508H, Sino Biological) (human) (UniProt P04234); experiment: phage ELISA on CD3D&E protein, detection with HRP anti-M13 antibody
[2] = target: BCMA-his protein (Cat #: BCA-H522y, ACRO) (human) (UniProt Q02223); experiment: phage ELISA on BCMA-his protein, detection with HRP anti-M13 antibody
Chain of BCMA-his protein (Cat #: BCA-H522y, ACRO) (human) (Q02223 1-54 limits assumed): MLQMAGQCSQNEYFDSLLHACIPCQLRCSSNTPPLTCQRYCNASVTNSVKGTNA

Chain of CD3D&E protein (Cat #: CT038-H2508H, Sino Biological) (human) (P04234 22-105, chain 1 of 2): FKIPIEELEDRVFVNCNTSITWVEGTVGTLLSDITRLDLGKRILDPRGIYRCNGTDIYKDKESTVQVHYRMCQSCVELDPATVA
Chain of CD3D&E protein (Cat #: CT038-H2508H, Sino Biological) (human) (P07766 23-126, chain 2 of 2, further chain): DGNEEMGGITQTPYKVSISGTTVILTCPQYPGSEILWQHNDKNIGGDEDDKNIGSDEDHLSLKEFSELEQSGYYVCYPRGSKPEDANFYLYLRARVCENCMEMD

B1: anti-CD3D&E antibody D1E9 scFv displayed on phage (scFv, part only; not given: scFv linker, phage coat fusion, V domains shown, not shown: another chain or arm of the molecule; large carriers; small tags and cut ends)
VH: EVQLVESGGGLVQPGRSLRLSCAASGFTFDDFAMHWVRQAPGKGLEWVSGITWNSGSVGYADSVKGRFTISRDNAKKSLYLQMNSLRAEDTALYYCAKDRSGYGHYYYGMDVWGQGTTVTVAS
VL: EIVMTQSPATLSVSPGERATLSCRASTSVSHNVAWYQQKPGQAPRLLIYGASTKVTGIPARFSGSGSGTEFTLTISSLQSEDFAVYYCQHYINWPLTFGGGTKVEIK
EC50 (read off the curve) [1]: 20 mg/L

B2: anti-CD3D&E antibody 7-1A12 scFv displayed on phage (scFv, part only; not given: scFv linker, part only)
scFv, part: EVQLVESGGGLVQPGRSLRLSCAASGFTFSDYTMHWVRQAPGKGLEWVSGISWNTGTIGYADSVKGRFTISRDNAKKSLYLQMNSLRAEDTALYYCAKDNSGYGHYYFGMDVWGQGTTVTVASEIVMTQSPATLSVSPGERATLSCRASQSVSRNVAWYQQKPGQAPRLLIYGASTRQTGIPARFSGSGSGTEFTLTISSLQSEDFAVYYCQSYINWPLQFGGGTKVEIK
EC50 (read off the curve) [1]: 4 mg/L

B3: anti-BCMA antibody A6-3 scFv displayed on phage (scFv, part only; not given: scFv linker, phage coat fusion, V domains shown, not shown: another chain or arm of the molecule; large carriers; small tags and cut ends)
VH: QVQLVQSGAEVKKPGASVKVSCKASGYTFTNHIIHWVRQAPGQGLEWMGYINPYPGYHGYNDKFSGRATMTSDTSTSTVYMELSSLRSEDTAVYYCARDGYYRDQDVLDYWGQGTLVTVSS
VL: DIQMTQSPSSLSASVGDRVTITCKASQDISQYLNWYQQKPGKAPKLLIYYTSGLHPGVPSRFSGSGSGTDFTFTISSLEPEDIATYYCQQGYALPWTFGQGTKVEIK
EC50 (read off the curve) [2]: 1 mg/L
